According to patent US20030175929A1 (ORIENTAL YEAST, published 2003):

B1: human creatine kinase M type subunit (enzyme)
chain: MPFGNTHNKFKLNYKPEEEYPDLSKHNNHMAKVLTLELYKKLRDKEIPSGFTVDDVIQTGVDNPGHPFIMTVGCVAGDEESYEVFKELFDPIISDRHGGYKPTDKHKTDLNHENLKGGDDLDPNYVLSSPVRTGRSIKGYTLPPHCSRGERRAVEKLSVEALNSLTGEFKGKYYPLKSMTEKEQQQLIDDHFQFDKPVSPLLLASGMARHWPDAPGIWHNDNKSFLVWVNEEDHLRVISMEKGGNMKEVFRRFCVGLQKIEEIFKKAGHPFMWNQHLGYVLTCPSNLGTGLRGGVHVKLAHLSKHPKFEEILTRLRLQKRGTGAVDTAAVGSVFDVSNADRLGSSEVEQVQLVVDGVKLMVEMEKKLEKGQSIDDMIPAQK
notes: Co-expressed with the CK-B subunit from the single plasmid pTRP-hCKMB; also called CK-M subunit; CK-M
B2: human creatine kinase B type subunit (enzyme)
chain: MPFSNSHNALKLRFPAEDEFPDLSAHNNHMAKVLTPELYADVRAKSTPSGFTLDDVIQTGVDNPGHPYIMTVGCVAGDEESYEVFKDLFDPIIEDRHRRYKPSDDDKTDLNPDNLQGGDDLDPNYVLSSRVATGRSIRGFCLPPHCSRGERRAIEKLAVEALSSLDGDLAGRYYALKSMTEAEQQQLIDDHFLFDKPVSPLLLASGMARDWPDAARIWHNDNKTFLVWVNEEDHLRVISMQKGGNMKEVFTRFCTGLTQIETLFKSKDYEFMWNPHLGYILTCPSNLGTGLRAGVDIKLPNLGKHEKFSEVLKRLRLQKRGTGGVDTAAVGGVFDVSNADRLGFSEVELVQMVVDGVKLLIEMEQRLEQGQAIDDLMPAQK
notes: Co-expressed with the CK-M subunit from the single plasmid pTRP-hCKMB; also called CK-B subunit; CK-B

Key:
[1] = target: B2; assay: co-expression in E. coli; Q-Sepharose separation of dimeric CK isozymes; MB fraction purified to electrophoretic homogeneity by Sephacryl-S200HR gel filtration
Method: (§1) The cells thus obtained were collected and suspended in a 50 mM phosphate buffer (pH 7.5) containing 5 mM of mercaptoethanol. After disrupting the cells by ultrasonication, the supernatant was referred to as a recombinant CK extract. From this extract, CK was recovered as a precipitate by 70%-saturation ammonium sulfate salting out. The precipitate thus salted out was dissolved in 1.5 M ammonium sulfate (pH 7.5) and subjected to hydrophobic column chromatography by using a Buthyl-Toyopearl C650 gel (manufactured by Tosoh). The CK activity was eluted at 1.5-0 M-gradient (pH 7.5) ammonium sulfate elution. The CK activity elution peaks were combined, concentrated by using an ultrafiltration membrane (YM10, manufactured by Amicon) and then dialyzed against a 50 mM phosphate buffer (pH 7.5). Fractions eluted by the hydrophobic chromatography were adsorbed by a Q-Sepharose column (manufactured by Pharmacia, Sweden) and thus it was attempted to separate CK isozymes.
(§2) As a result, the CK activity was separated into the MM type (unadsorbed fraction), the MB type (elution peak 1) and the BB type (elution peak 2). […] It was thus found out that CK-MB was expressed at a high dose in this recombinant strain. It could be also confirmed that three human recombinant CK isozymes could be prepared by using this expression strain alone. […]

[2] = target: the molecule itself; assay: co-expression in E. coli; Q-Sepharose separation of dimeric CK isozymes (homodimer)
Method: as §1, §2

binding result [1]	Binder	binding result [2]
binds	B1	binds
	B2	binds
